Bridge positions count the residues as written; N and C are the ends. Square brackets hold non-standard residues; d marks the D form. Ends that are not written are not given here. Oic = O=C(O)[C@@H]1C[C@@H]2CCCC[C@@H]2N1; Phe(2-Br) = N[C@@H](Cc1ccccc1Br)C(=O)O; NMeI = CC[C@H](C)[C@H](NC)C(=O)O; tBuAla = CC(C)(C)C[C@H](N)C(=O)O; Pen = CC(C)(S)[C@H](N)C(=O)O; NMeC = CN[C@@H](CS)C(=O)O; NMeA = CN[C@@H](C)C(=O)O; Sar = CNCC(=O)O
What was measured:
[1] = target: recombinant human MASP2 active protease (amino acids 297-686, C-terminal His Tag) (human, UniProt O00187 297-686); experiment: cell-based or functional assay
Sequence of recombinant human MASP2 active protease (amino acids 297-686, C-terminal His Tag) (O00187 other isoform, or with tags, fused parts or gaps limits assumed): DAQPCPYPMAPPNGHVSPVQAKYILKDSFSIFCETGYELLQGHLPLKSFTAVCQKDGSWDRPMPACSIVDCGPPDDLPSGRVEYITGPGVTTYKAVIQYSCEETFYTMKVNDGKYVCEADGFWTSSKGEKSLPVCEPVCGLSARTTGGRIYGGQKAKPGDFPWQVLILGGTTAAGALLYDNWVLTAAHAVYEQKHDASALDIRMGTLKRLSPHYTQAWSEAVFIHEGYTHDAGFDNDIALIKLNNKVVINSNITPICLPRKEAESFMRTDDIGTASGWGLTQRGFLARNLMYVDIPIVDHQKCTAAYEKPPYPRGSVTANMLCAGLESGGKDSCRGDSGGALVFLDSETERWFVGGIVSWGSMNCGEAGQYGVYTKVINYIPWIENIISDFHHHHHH

[2] = target: T1, recombinant human MASP1 active protease (amino acids 297-699, C-terminal His Tag) (human, UniProt P48740 297-699); experiment: cell-based or functional assay
T1 sequence: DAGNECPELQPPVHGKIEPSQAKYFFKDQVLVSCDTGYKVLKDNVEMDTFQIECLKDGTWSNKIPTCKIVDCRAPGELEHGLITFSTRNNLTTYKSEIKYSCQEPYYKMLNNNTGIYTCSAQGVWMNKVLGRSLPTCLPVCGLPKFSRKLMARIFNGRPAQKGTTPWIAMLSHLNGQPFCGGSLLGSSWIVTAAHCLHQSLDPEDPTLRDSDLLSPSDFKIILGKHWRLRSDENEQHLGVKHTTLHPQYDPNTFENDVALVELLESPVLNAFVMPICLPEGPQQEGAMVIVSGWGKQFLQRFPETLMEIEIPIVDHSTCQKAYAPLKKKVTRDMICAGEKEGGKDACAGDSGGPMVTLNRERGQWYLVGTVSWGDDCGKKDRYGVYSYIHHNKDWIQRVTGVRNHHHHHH

B1: AIC+SRS-((2-Bromo)F)-PPI-(Pen)+IPD-NH2 (peptide)
peptide: AICSRS[Phe(2-Br)]PPI[Pen]IPD-NH2
modifications: disulfide 3-11; N-terminus assumed
SMILES: CC[C@H](C)[C@H](NC(=O)[C@H](C)N)C(=O)N[C@H]1CSSC(C)(C)[C@@H](C(=O)N[C@H](C(=O)N2CCC[C@H]2C(=O)N[C@@H](CC(=O)O)C(N)=O)[C@@H](C)CC)NC(=O)[C@H]([C@@H](C)CC)NC(=O)[C@@H]2CCCN2C(=O)[C@@H]2CCCN2C(=O)[C@H](Cc2ccccc2Br)NC(=O)[C@H](CO)NC(=O)[C@H](CCCNC(=N)N)NC(=O)[C@H](CO)NC1=O
human MASP2 IC50 [1]: 48 nM
human MASP1 IC50 [2]: 2.8 nM

B2: ((N-Me)A)-IC+SRSLP-(Oic)-I-(Pen)+IPD-NH2 (peptide)
peptide: [NMeA]ICSRSLP[Oic]I[Pen]IPD-NH2
modifications: disulfide 3-11; N-terminus assumed
SMILES: CC[C@H](C)[C@H](NC(=O)[C@H](C)NC)C(=O)N[C@H]1CSSC(C)(C)[C@@H](C(=O)N[C@H](C(=O)N2CCC[C@H]2C(=O)N[C@@H](CC(=O)O)C(N)=O)[C@@H](C)CC)NC(=O)[C@H]([C@@H](C)CC)NC(=O)[C@@H]2C[C@@H]3CCCC[C@@H]3N2C(=O)[C@@H]2CCCN2C(=O)[C@H](CC(C)C)NC(=O)[C@H](CO)NC(=O)[C@H](CCCNC(=N)N)NC(=O)[C@H](CO)NC1=O
human MASP2 IC50 [1]: 145 nM
human MASP1 IC50 [2]: 2.8 nM

B3: AIC+SRSLP-(Oic)-I-(Pen)+IPE-NH2 (peptide)
peptide: AICSRSLP[Oic]I[Pen]IPE-NH2
modifications: disulfide 3-11; N-terminus assumed
SMILES: CC[C@H](C)[C@H](NC(=O)[C@H](C)N)C(=O)N[C@H]1CSSC(C)(C)[C@@H](C(=O)N[C@H](C(=O)N2CCC[C@H]2C(=O)N[C@@H](CCC(=O)O)C(N)=O)[C@@H](C)CC)NC(=O)[C@H]([C@@H](C)CC)NC(=O)[C@@H]2C[C@@H]3CCCC[C@@H]3N2C(=O)[C@@H]2CCCN2C(=O)[C@H](CC(C)C)NC(=O)[C@H](CO)NC(=O)[C@H](CCCNC(=N)N)NC(=O)[C@H](CO)NC1=O
human MASP2 IC50 [1]: 150 nM
human MASP1 IC50 [2]: 2.8 nM

B4: ((N-Me)G)-((N-Me)I)-C+SRS-((tBu)A)-PPI-(Pen)+I-NH2 (peptide)
peptide: [Sar][NMeI]CSRS[tBuAla]PPI[Pen]I-NH2
modifications: disulfide 3-11; N-terminus assumed
SMILES: CC[C@H](C)[C@H](NC(=O)[C@H]1NC(=O)[C@H]([C@@H](C)CC)NC(=O)[C@@H]2CCCN2C(=O)[C@@H]2CCCN2C(=O)[C@H](CC(C)(C)C)NC(=O)[C@H](CO)NC(=O)[C@H](CCCNC(=N)N)NC(=O)[C@H](CO)NC(=O)[C@@H](NC(=O)[C@H]([C@@H](C)CC)N(C)C(=O)CNC)CSSC1(C)C)C(N)=O
human MASP2 IC50 [1]: 320 nM
human MASP1 IC50 [2]: 2.7 nM

AICSRSLP[rel‑(1R,3R,5R,6R)‑6‑(Trifluoromethyl)‑2‑azabicyclo(3.1.0)hexane‑3‑carboxylic acid]ICIPD-NH2 (disulfide 3-11)
human MASP2 IC50 [1]: 2800 nM
human MASP1 IC50 [2]: 2.8 nM

B5: SIC+SRS-((tBu)A)-PPI-((N-Me)C)+I-NH2 (peptide)
peptide: SICSRS[tBuAla]PPI[NMeC]I-NH2
modifications: disulfide 3-11; N-terminus assumed
SMILES: CC[C@H](C)[C@H](NC(=O)[C@@H]1CSSC[C@H](NC(=O)[C@@H](NC(=O)[C@@H](N)CO)[C@@H](C)CC)C(=O)N[C@@H](CO)C(=O)N[C@@H](CCCNC(=N)N)C(=O)N[C@@H](CO)C(=O)N[C@@H](CC(C)(C)C)C(=O)N2CCC[C@H]2C(=O)N2CCC[C@H]2C(=O)N[C@@H]([C@@H](C)CC)C(=O)N1C)C(N)=O
human MASP2 IC50 [1]: 230 nM
human MASP1 IC50 [2]: 2.8 nM

— US20210246166A1 (Bayer, published 2021)
